Positions count from the first letter of the chain named.
How the values were obtained:
Assay in all cases: cell_activity
[1] = system: T1, MIT 25-26L.35 (synthetic construct); settings: 500 ng mRNA, FlpIn CHO
T1 sequence: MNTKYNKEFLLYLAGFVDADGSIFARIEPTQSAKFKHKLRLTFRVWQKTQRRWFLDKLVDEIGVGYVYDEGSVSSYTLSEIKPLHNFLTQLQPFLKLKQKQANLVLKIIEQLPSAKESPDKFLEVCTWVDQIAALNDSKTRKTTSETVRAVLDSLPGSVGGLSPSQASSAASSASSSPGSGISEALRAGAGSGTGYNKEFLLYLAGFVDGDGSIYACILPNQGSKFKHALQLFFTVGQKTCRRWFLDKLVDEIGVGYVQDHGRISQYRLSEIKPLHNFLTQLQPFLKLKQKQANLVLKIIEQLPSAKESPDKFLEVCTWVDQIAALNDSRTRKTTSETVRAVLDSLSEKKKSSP

[2] = system: T2, MIT 25-26x.48 (synthetic construct); settings: 500 ng mRNA, FlpIn CHO
T2 sequence: T1 sequence with W46H, E70T, S75D, Q259N, H261F, R263S, H276Y

[3] = system: T3, MIT 25-26x.91 (synthetic construct); settings: 500 ng mRNA, FlpIn CHO; 16% in repeat (FIG. 4)
T3 sequence: T1 sequence with A19S, W46H, E70T, S75D, E80Q, Q259H, R263T

MIT 25-26 wild-type site (m.3243A)
activity [1]: 2 % indels
activity [2]: 44 % indels
activity [3]: 20 % indels
